Reference: patent US20220186223, “T-LYMPHOCYTE BINDING APTAMERS” (Aummune Ltd., published 2022)

Biological target: CD3 epsilon (CD3ε), recombinant extracellular Fc chimera (Homo sapiens, UniProt P07766 P07766:23-126)
Experiment: HPLC size exclusion shift, 1 hr 37 C and 4 C
Settings: tags: Fc chimera, His tag; Abcam ab220590; label: Cy5 via hybridised CpG'-Cy5 complementary strand
Experimental: 1 μM of folded Cy5 labeled aptamer was mixed with 50 µL of protein to a final volume of 60 ul and incubated for 1 hr at 4° C. or 37° C. Next, to detect the Cy-labelled aptamers, samples were analyzed at 570 nm absorption via HPLC ProSEC 300S size exclusion column (Agilent).
Top five candidates (CS6, CS7, CS8, CS8c, and CS9 SEQ ID NO. 1-5) were synthesized with a 5(5′) phosphothioated CpG motif and assayed for Human CD3ε (hCD3ε) binding via the HPLC size exclusion column. In this method, the aptamers were labelled with Cy5 complementary sequence to the CpG site (Cy5-CpG′). Then, the folded-labelled candidates are incubated, each, with the CD3ε- recombinant protein or with negative control IgG1 (1 hr at 37° C. and 4° C.) and analyzed by HPLC ProSEC 300S size exclusion column (Agilent) at 570 nm absorption. Upon protein binding, the aptamer-protein complex has a greater mass than a free aptamer and as a result, the retention time (RT) at the column is expected to be shorter. Inversely, in the case of non-binding aptamer, the RT in the presence of protein will be the same as in the absence of the protein. As a control, PolyT sequence was used.

Chain of CD3 epsilon (CD3ε), recombinant extracellular Fc chimera (P07766 23-126, change not shown, one chain of several): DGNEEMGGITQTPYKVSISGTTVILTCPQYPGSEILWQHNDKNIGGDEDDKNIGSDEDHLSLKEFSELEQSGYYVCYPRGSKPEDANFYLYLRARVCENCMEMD

Binding result, binds:
TTGTAAGGACTGCTTAGGATTGCGAAAACAATATTCGTAT (ssDNA, synthesized with 5' CpG motif having 5 PS linkages (extension not in ref)) [CS9]
CATTTCATAGGGCTGCTTAGGATTGCGAAGGTAATGCCAG (ssDNA, synthesized with 5' CpG motif having 5 PS linkages (extension not in ref)) [CS7]
CCCTTACCCCTTTTAGGTCTGCTTAGGATTGCGAAAAAAG (ssDNA, synthesized with 5' CpG motif having 5 PS linkages (extension not in ref)) [CS8]
CTTTTAGGTCTGCTTAGGATTGCGAAAAAAG (ssDNA, synthesized with 5' CpG motif having 5 PS linkages (extension not in ref)) [CS8c (CS8cut)]
